US20140056895 (published 2014)
Like-named read-outs stand apart in the source and are kept apart here.

Tests used:
IL13 [1] = target: T1, IL13 (human, UniProt P35225); experiment: SPR
IL13 [2] = target: T1, IL13; experiment: SPR; remark: listed apart in the source
IL13 [3] = target: T1, IL13
IL4 = target: T2, IL4 (human, UniProt P05112)
T2 chain: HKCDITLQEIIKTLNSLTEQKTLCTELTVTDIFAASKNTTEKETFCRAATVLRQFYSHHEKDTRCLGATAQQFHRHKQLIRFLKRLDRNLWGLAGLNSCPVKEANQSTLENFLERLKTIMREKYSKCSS

T1 sequence (P35225 35-146): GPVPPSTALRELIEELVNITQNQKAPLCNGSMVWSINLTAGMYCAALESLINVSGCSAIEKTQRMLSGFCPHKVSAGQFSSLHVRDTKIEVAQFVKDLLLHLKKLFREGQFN

B1: CODV-Ig heavy-chain template (batches 201-270, 501-508, 704, 801), IL13 arm (antibody, V domains shown)
VH: EVQLKESGPGLVAPGGSLSITCTVSGFSLTDSSINWVRQPPGKGLEWLGMIWGDGRIDYADALKSRLSISKDSSKSQVFLEMTSLRTDDTATYYCARDGYFPYAMDFWGQGTSVTVSS
VL: DIVLTQSPASLAVSLGQRATISCRASESVDSYGQSYMHWYQQKAGQPPKLLIYLASNLESGVPARFSGSGSRTDFTLTIDPVQAEDAATYYCQQNAEDSRTFGGGTKLEIK
Kd (IL13 [1]): 0.025 nM
Kd (IL13 [2]): 0.025 nM

B2: Cross-over IL4(G4S2)IL13CH1-Fc / IL13(G4S2)IL4CL (antibody)
chain 1: not shown
chain 2: DIVLTQSPASLAVSLGQRATISCRASESVDSYGQSYMHWYQQKAGQPPKLLIYLASNLESGVPARFSGSGSRTDFTLTIDPVQAEDAATYYCQQNAEDSRTFGGGTKLEIKGGGGSGGGGSDIQMTQSPASLSVSVGDTITLTCHASQNIDVWLSWFQQKPGNIPKLLIYKASNLHTGVPSRFSGSGSGTGFTLTISSLQPEDIATYYCQQAHSYPFTFGGGTKLEIKRTVAAPSVFIFPPSDEQLKSGTASVVCLLNNFYPREAKVQWKVDNALQSGNSQESVTEQDSKDSTYSLSSTLTLSKADYEKHKVYACEVTHQGLSSPVTKSFNRGEC
binding result (IL13 [3]): no binding
binding result (IL4): no binding
